# Source: US20100015637A1 (AbbVie / Abbott, published 2010)
# T1: CHO human PlGF-1 comprising amino acids 1-137 (human PlGF-1-His (1-131), CHO 6305) (human, UniProt P49763 19-221, N-glycans at N21 (completely glycosylated) and N89 (partially glycosylated))
# T1 construct: Mature human PlGF-1 with 6xHis tag (137 amino acids); also called CHO (1-137)
# T1 sequence: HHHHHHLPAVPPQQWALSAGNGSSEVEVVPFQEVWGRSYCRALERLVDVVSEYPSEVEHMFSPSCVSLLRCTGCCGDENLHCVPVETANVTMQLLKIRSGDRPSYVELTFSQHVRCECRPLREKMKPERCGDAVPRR
# How the values were obtained:
# [1] = biological target: human PlGF-1 fragment (comprising amino acids 17-131) produced in human embryonic kidney cells (human) (UniProt P49763); assay: … sandwich, capture MAb264, detection pAb264; antigen 15 pg/mL
# [2] = biological target: CHO human PlGF-1 fragment (comprising amino acids 17-131; ATCC PTA-8540) (human) (UniProt P49763); assay: as above
# [3] = biological target: human PlGF-1 comprising amino acids 1-137 produced in human embryonic kidney cells (human) (UniProt P49763); assay: as above
# [4] = biological target: CHO human PlGF-1 comprising amino acids 1-137 (human PlGF-1-His (1-131), CHO 6305) (human) (UniProt P49763); assay: as above
# [5] = biological target: recombinant human PlGF-1 (comprising amino acids 1-131) expressed in E. coli (R&D Systems) (human) (UniProt P49763); assay: as above
# [6] = biological target: human PlGF-1 fragment (comprising amino acids 17-131) produced in human embryonic kidney cells (human) (UniProt P49763); assay: … sandwich, capture MAb264, detection pAb264; antigen 750 pg/mL
# [7] = biological target: CHO human PlGF-1 fragment (comprising amino acids 17-131; ATCC PTA-8540) (human) (UniProt P49763); assay: as above
# [8] = biological target: human PlGF-1 comprising amino acids 1-137 produced in human embryonic kidney cells (human) (UniProt P49763); assay: as above
# [9] = biological target: CHO human PlGF-1 comprising amino acids 1-137 (human PlGF-1-His (1-131), CHO 6305) (human) (UniProt P49763); assay: as above
# [10] = biological target: recombinant human PlGF-1 (comprising amino acids 1-131) expressed in E. coli (R&D Systems) (human) (UniProt P49763); assay: as above
# [11] = biological target: human PlGF-1 fragment (comprising amino acids 17-131) produced in human embryonic kidney cells (human) (UniProt P49763); assay: … sandwich, capture MAb264, detection pAb264; antigen 60 pg/mL
# [12] = biological target: CHO human PlGF-1 fragment (comprising amino acids 17-131; ATCC PTA-8540) (human) (UniProt P49763); assay: as above
# [13] = biological target: human PlGF-1 comprising amino acids 1-137 produced in human embryonic kidney cells (human) (UniProt P49763); assay: as above
# [14] = biological target: CHO human PlGF-1 comprising amino acids 1-137 (human PlGF-1-His (1-131), CHO 6305) (human) (UniProt P49763); assay: as above
# [15] = biological target: recombinant human PlGF-1 (comprising amino acids 1-131) expressed in E. coli (R&D Systems) (human) (UniProt P49763); assay: as above
# [16] = biological target: human PlGF-1 fragment (comprising amino acids 17-131) produced in human embryonic kidney cells (human) (UniProt P49763); assay: … sandwich, capture MAb264, detection pAb264; antigen 0 pg/mL (blank)
# [17] = biological target: CHO human PlGF-1 fragment (comprising amino acids 17-131; ATCC PTA-8540) (human) (UniProt P49763); assay: as above
# [18] = biological target: human PlGF-1 comprising amino acids 1-137 produced in human embryonic kidney cells (human) (UniProt P49763); assay: as above
# [19] = biological target: CHO human PlGF-1 comprising amino acids 1-137 (human PlGF-1-His (1-131), CHO 6305) (human) (UniProt P49763); assay: as above
# [20] = biological target: recombinant human PlGF-1 (comprising amino acids 1-131) expressed in E. coli (R&D Systems) (human) (UniProt P49763); assay: as above
# [21] = biological target: human PlGF-1 fragment (comprising amino acids 17-131) produced in human embryonic kidney cells (human) (UniProt P49763); assay: … sandwich, capture MAb264, detection pAb264; antigen 250 pg/mL
# [22] = biological target: CHO human PlGF-1 fragment (comprising amino acids 17-131; ATCC PTA-8540) (human) (UniProt P49763); assay: as above
# [23] = biological target: human PlGF-1 comprising amino acids 1-137 produced in human embryonic kidney cells (human) (UniProt P49763); assay: as above
# [24] = biological target: CHO human PlGF-1 comprising amino acids 1-137 (human PlGF-1-His (1-131), CHO 6305) (human) (UniProt P49763); assay: as above
# [25] = biological target: recombinant human PlGF-1 (comprising amino acids 1-131) expressed in E. coli (R&D Systems) (human) (UniProt P49763); assay: as above
# [26] = biological target: human PlGF-1 fragment (comprising amino acids 17-131) produced in human embryonic kidney cells (human) (UniProt P49763); assay: … sandwich, capture MAb264, detection pAb264; antigen 1500 pg/mL
# [27] = biological target: CHO human PlGF-1 fragment (comprising amino acids 17-131; ATCC PTA-8540) (human) (UniProt P49763); assay: as above
# [28] = biological target: human PlGF-1 comprising amino acids 1-137 produced in human embryonic kidney cells (human) (UniProt P49763); assay: as above
# [29] = biological target: CHO human PlGF-1 comprising amino acids 1-137 (human PlGF-1-His (1-131), CHO 6305) (human) (UniProt P49763); assay: as above
# [30] = biological target: recombinant human PlGF-1 (comprising amino acids 1-131) expressed in E. coli (R&D Systems) (human) (UniProt P49763); assay: as above
# [31] = biological target: T1, CHO human PlGF-1 comprising amino acids …; assay: sandwich chemiluminescent EIA, 1-255-713 coated, acridinium 2-826-335 Fab'2 detection
# Protocol: After the capture reagent had been coated on the solid phase, it was removed and any unoccupied binding sites remaining on the plates were blocked using a 2% Fish Gel solution in PBS. The plates were washed and log 2 serial dilutions of recombinant antigen (rAg) lots, starting at 10,000 pg/mL in research phase […]® Human PlGF-1 calibrator diluent (which comprises a buffer containing MES, other salt, a protein blocker and an antimicrobial; Abbott Laboratories, Abbott Park, Ill.), were added to the plate for a one-hour incubation. Purified human PlGF-1 rAg (R&D Systems Minneapolis, Minn.) that was produced in E. coli was used as a positive control and purified NGAL) rAg was used as a negative control in this assay. […] Luminescence counts per second (LCPS) were measured on a Microbeta Jet instrument (Perkin Elmer, Waltham Mass.). The plate was loaded in the instrument where 100 μl of Architect Pre-trigger Solution (Abbott Laboratories, Abbott Park, Ill.) is added to each well, followed by 100 ul of Architect Trigger Solution is added before flash chemiluminescence is read and recorded. A calibration curve was generated with each rAg and recorded in the following graph.
molecule,measurement,setting,value
"monoclonal antibody 264 (mouse anti-human PlGF-1, Clone 37203, R&D Systems Catalog Number MAB264)",RLU,[1],8590 RLU
same,RLU,[2],6870 RLU
same,RLU,[3],10400 RLU
same,RLU,[4],6370 RLU
same,RLU,[5],15600 RLU
same,RLU,[6],206000 RLU
same,RLU,[7],120000 RLU
same,RLU,[8],277000 RLU
same,RLU,[9],106000 RLU
same,RLU,[10],352000 RLU
same,RLU,[11],23500 RLU
same,RLU,[12],14800 RLU
same,RLU,[13],31300 RLU
same,RLU,[14],13800 RLU
same,RLU,[15],55000 RLU
same,RLU,[16],4880 RLU
same,RLU,[17],4680 RLU
same,RLU,[18],4750 RLU
same,RLU,[19],4650 RLU
same,RLU,[20],5110 RLU
same,RLU,[21],77900 RLU
same,RLU,[22],46000 RLU
same,RLU,[23],109000 RLU
same,RLU,[24],38900 RLU
same,RLU,[25],196000 RLU
same,RLU,[26],403000 RLU
same,RLU,[27],223000 RLU
same,RLU,[28],507000 RLU
same,RLU,[29],201000 RLU
same,RLU,[30],937000 RLU
"acridinium labeled Fab'2 fragment of human PlGF-1 antibody 2-826-335 (other, acridinium labeled) VH: QVQLKQSGPGLVQPSQSLSITCTVSGFSLTTYGIHWVRQSPGKGLEWLGVMWSGGDTDYDAAFISRLSISKDNSKSQVFFKMNSLQANDTGIYYCARYRFYGMDYWGQGTSVTVSS VL: AIQMTQSSSSFSVSLGDRVTITCKASEDIYNRFAWYQQKPGNAPRLLISGAASLEAGVPSRFSGSGSGQDYTLSITSLQTEDVATYYCQQYWSTPWTFGGGTKLEIKR",binding result,[31],binds
